Like-named read-outs stand apart in the source and are kept apart here. *1 amine or outer side, *2 acyl side, *3 side chain or, on linkers, in order; H or OH if unused. Bridges are numbered along the chain shown (N, C = ends). Primed or numbered codes have the meaning given here. Where no end group is shown, it is not given here. Side-chain parts run from the residue outwards. [ ]: non-standard residue; d: D form. The star is where a group is joined. dpeg″ = spacer —[CO(CH2)O(CH2)2O(CH2)NH]—, O=C(COCCOCN[*:1])[*:2]; dpeg = —[CO(CH2)O(CH2)2O(CH2)NH]— spacer, O=C(COCCOCN[*:1])[*:2]; C20 diacid = O=C(O)CCCCCCCCCCCCCCCCCCC(=O)*; γGlu = O=C(O)[C@H](CCC(=O)[*:2])N[*:1]; Aib = CC(C)(N)C(=O)O
B1: Compound A36 (peptide)
peptide: Ac-YSHGTFTSDYSKYLD[Aib]KYAQK([γGlu-γGlu-dpeg″-C20 diacid])FVKWLEEEPSSGAPPPS-OH
modifications: lactam 24-28
SMILES: CC(=O)N[C@@H](Cc1ccc(O)cc1)C(=O)N[C@@H](CO)C(=O)N[C@@H](Cc1c[nH]cn1)C(=O)NCC(=O)N[C@H](C(=O)N[C@@H](Cc1ccccc1)C(=O)N[C@H](C(=O)N[C@@H](CO)C(=O)N[C@@H](CC(=O)O)C(=O)N[C@@H](Cc1ccc(O)cc1)C(=O)N[C@@H](CO)C(=O)N[C@@H](CCCCN)C(=O)N[C@@H](Cc1ccc(O)cc1)C(=O)N[C@@H](CC(C)C)C(=O)N[C@@H](CC(=O)O)C(=O)NC(C)(C)C(=O)N[C@@H](CCCCN)C(=O)N[C@@H](Cc1ccc(O)cc1)C(=O)N[C@@H](C)C(=O)N[C@@H](CCC(N)=O)C(=O)N[C@@H](CCCCNC(=O)CC[C@H](NC(=O)CC[C@H](NC(=O)COCCOCNC(=O)CCCCCCCCCCCCCCCCCCC(=O)O)C(=O)O)C(=O)O)C(=O)N[C@@H](Cc1ccccc1)C(=O)N[C@H](C(=O)N[C@H]1CCCCNC(=O)CC[C@@H](C(=O)N[C@@H](CCC(=O)O)C(=O)N2CCC[C@H]2C(=O)N[C@@H](CO)C(=O)N[C@@H](CO)C(=O)NCC(=O)N[C@@H](C)C(=O)N2CCC[C@H]2C(=O)N2CCC[C@H]2C(=O)N2CCC[C@H]2C(=O)N[C@@H](CO)C(=O)O)NC(=O)[C@H](CCC(=O)O)NC(=O)[C@H](CC(C)C)NC(=O)[C@H](Cc2c[nH]c3ccccc23)NC1=O)C(C)C)[C@@H](C)O)[C@@H](C)O
B2: Compound A38 (peptide)
peptide: YSHGTFTSDYSKYLD[Aib]KYAEK([γGlu-γGlu-dpeg″-C20 diacid])FVKWLEEEPSSGAPPPS-OH
modifications: lactam 24-28; N-terminus assumed
SMILES: CC(C)C[C@@H]1NC(=O)[C@H](Cc2c[nH]c3ccccc23)NC(=O)[C@@H](NC(=O)[C@@H](NC(=O)[C@H](Cc2ccccc2)NC(=O)[C@H](CCCCNC(=O)CC[C@H](NC(=O)CC[C@H](NC(=O)COCCOCNC(=O)CCCCCCCCCCCCCCCCCCC(=O)O)C(=O)O)C(=O)O)NC(=O)[C@H](CCC(=O)O)NC(=O)[C@H](C)NC(=O)[C@H](Cc2ccc(O)cc2)NC(=O)[C@H](CCCCN)NC(=O)C(C)(C)NC(=O)[C@H](CC(=O)O)NC(=O)[C@H](CC(C)C)NC(=O)[C@H](Cc2ccc(O)cc2)NC(=O)[C@H](CCCCN)NC(=O)[C@H](CO)NC(=O)[C@H](Cc2ccc(O)cc2)NC(=O)[C@H](CC(=O)O)NC(=O)[C@H](CO)NC(=O)[C@@H](NC(=O)[C@H](Cc2ccccc2)NC(=O)[C@@H](NC(=O)CNC(=O)[C@H](Cc2c[nH]cn2)NC(=O)[C@H](CO)NC(=O)[C@@H](N)Cc2ccc(O)cc2)[C@@H](C)O)[C@@H](C)O)C(C)C)CCCCNC(=O)CC[C@@H](C(=O)N[C@@H](CCC(=O)O)C(=O)N2CCC[C@H]2C(=O)N[C@@H](CO)C(=O)N[C@@H](CO)C(=O)NCC(=O)N[C@@H](C)C(=O)N2CCC[C@H]2C(=O)N2CCC[C@H]2C(=O)N2CCC[C@H]2C(=O)N[C@@H](CO)C(=O)O)NC(=O)[C@H](CCC(=O)O)NC1=O
B3: Compound A39 (peptide)
peptide: YSHGTFTSDYSKYLD[Aib]KYAKK([γGlu-γGlu-dpeg″-C20 diacid])FVKWLEEEPSSGAPPPS-OH
modifications: lactam 24-28; N-terminus assumed
SMILES: CC(C)C[C@@H]1NC(=O)[C@H](Cc2c[nH]c3ccccc23)NC(=O)[C@@H](NC(=O)[C@@H](NC(=O)[C@H](Cc2ccccc2)NC(=O)[C@H](CCCCNC(=O)CC[C@H](NC(=O)CC[C@H](NC(=O)COCCOCNC(=O)CCCCCCCCCCCCCCCCCCC(=O)O)C(=O)O)C(=O)O)NC(=O)[C@H](CCCCN)NC(=O)[C@H](C)NC(=O)[C@H](Cc2ccc(O)cc2)NC(=O)[C@H](CCCCN)NC(=O)C(C)(C)NC(=O)[C@H](CC(=O)O)NC(=O)[C@H](CC(C)C)NC(=O)[C@H](Cc2ccc(O)cc2)NC(=O)[C@H](CCCCN)NC(=O)[C@H](CO)NC(=O)[C@H](Cc2ccc(O)cc2)NC(=O)[C@H](CC(=O)O)NC(=O)[C@H](CO)NC(=O)[C@@H](NC(=O)[C@H](Cc2ccccc2)NC(=O)[C@@H](NC(=O)CNC(=O)[C@H](Cc2c[nH]cn2)NC(=O)[C@H](CO)NC(=O)[C@@H](N)Cc2ccc(O)cc2)[C@@H](C)O)[C@@H](C)O)C(C)C)CCCCNC(=O)CC[C@@H](C(=O)N[C@@H](CCC(=O)O)C(=O)N2CCC[C@H]2C(=O)N[C@@H](CO)C(=O)N[C@@H](CO)C(=O)NCC(=O)N[C@@H](C)C(=O)N2CCC[C@H]2C(=O)N2CCC[C@H]2C(=O)N2CCC[C@H]2C(=O)N[C@@H](CO)C(=O)O)NC(=O)[C@H](CCC(=O)O)NC1=O

Columns and labels:
Assay in all cases: cell-based or functional assay
[1] = biological target: T1, human GLP-1 receptor (GLP-1R) (human, UniProt P43220 24-463)
T1 sequence (P43220 24-463): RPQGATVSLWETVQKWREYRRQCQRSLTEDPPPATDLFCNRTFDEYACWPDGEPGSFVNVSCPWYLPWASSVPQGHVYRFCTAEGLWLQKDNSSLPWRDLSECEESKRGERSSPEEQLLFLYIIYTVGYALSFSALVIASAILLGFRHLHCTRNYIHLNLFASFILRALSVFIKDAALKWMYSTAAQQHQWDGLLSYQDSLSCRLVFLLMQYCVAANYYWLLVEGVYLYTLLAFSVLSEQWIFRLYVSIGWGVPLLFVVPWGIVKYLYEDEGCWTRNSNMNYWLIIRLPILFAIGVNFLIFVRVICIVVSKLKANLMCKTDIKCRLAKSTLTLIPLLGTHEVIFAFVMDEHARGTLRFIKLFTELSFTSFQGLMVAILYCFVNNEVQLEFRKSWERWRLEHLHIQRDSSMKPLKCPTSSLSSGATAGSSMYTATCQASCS

[2] = biological target: T2, human Glucagon receptor (GCGR) (human, UniProt P47871 26-477)
[3] = biological target: T1, human GLP-1 receptor (GLP-1R); remark: listed apart in the source
hGIPR = biological target: T3, hGIPR (human, UniProt P48546 22-466)
T3 sequence (looked up): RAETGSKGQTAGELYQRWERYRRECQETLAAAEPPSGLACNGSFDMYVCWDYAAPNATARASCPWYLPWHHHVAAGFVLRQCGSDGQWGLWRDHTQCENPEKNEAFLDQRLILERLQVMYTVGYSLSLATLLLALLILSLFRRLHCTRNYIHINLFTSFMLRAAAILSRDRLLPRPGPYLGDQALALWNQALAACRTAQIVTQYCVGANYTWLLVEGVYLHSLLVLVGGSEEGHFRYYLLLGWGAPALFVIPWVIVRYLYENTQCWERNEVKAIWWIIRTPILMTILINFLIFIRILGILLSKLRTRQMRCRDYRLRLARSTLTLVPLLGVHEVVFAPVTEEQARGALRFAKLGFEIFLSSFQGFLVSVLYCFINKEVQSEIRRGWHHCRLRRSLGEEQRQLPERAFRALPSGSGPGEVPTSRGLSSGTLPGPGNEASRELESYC

[4] = biological target: cynomolgus monkey Glucagon receptor (GCGR) (cynomolgus monkey)
[5] = biological target: T2, human Glucagon receptor (GCGR); remark: listed apart in the source
[6] = biological target: rat Glucagon receptor (GCGR) (rat, UniProt P30082 27-485)
Sequence of rat Glucagon receptor (GCGR) (P30082 27-485): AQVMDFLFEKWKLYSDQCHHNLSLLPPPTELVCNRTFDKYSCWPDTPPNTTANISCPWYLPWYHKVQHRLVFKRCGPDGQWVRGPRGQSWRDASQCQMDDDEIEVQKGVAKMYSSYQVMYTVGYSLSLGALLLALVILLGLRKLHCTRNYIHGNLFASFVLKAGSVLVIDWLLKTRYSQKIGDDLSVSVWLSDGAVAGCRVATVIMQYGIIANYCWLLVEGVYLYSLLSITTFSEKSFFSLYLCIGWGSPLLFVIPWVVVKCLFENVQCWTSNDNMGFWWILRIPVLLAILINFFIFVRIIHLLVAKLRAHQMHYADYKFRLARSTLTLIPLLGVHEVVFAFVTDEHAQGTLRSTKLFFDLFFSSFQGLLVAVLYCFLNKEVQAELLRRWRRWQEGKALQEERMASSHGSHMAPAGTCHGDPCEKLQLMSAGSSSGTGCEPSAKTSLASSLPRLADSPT

Row | Binder | pEC50, cAMP accumulation [1] | pEC50, cAMP accumulation [2] | pEC50, cAMP accumulation [3] | pEC50, cAMP accumulation (hGIPR) | pEC50, cAMP accumulation [4] | pEC50, cAMP accumulation [5] | pEC50, cAMP accumulation [6]
1 | YSHGTFTSDYSKYLDK([γGlu-γGlu-dpeg-C20 diacid])KYAQEF[Aib]QWLEDEPSSGAPPPS-OH [Compound A7] | < 9 pEC50 (-log M) | 10.7 pEC50 (-log M) | – | – | – | – | –
2 | B1 | < 9 pEC50 (-log M) | 10.8 pEC50 (-log M) | – | – | – | – | –
3 | Ac-YSHGTFTSDYSKYLDK([γGlu-γGlu-dpeg″-C20 diacid])KYAEKFVKWLEDEPSSGAPPPS-OH (lactam 20-24) [Compound A37] | < 9 pEC50 (-log M) | 11.5 pEC50 (-log M) | – | – | – | – | –
4 | YSHGTFTSDYSKYLDK([γGlu-γGlu-dpeg″-C20 diacid])KYAEKFVKWLEDEPSSGKPPPS-OH (lactam 20-24) [Compound A32] | < 9 pEC50 (-log M) | 11.7 pEC50 (-log M) | – | – | – | – | –
5 | YSHGTFTSDYSKYLDK([γGlu-γGlu-dpeg″-C20 diacid])KYAEKFVKWLEDEPSSGSPPPS-OH (lactam 20-24) [Compound A33] | < 9 pEC50 (-log M) | 11.9 pEC50 (-log M) | – | – | – | – | –
6 | YSHGTFTSDYSKYLD[Aib]KYAQK([γGlu-γGlu-dpeg-C20 diacid])FV[Aib]WLEDEPSSGAPPPS-OH [Compound A6] | < 7 pEC50 (-log M) | 12.2 pEC50 (-log M) | < 7 pEC50 (-log M) | < 9 pEC50 (-log M) | 9.77 pEC50 (-log M) | 12.2 pEC50 (-log M) | 10.3 pEC50 (-log M)
7 | YSHGTFTSDYSKYLDK([γGlu-γGlu-dpeg″-C20 diacid])KYAEKFVKWLEDEPSSGAPPPS-NH2 (lactam 20-24) [Compound A34] | < 9 pEC50 (-log M) | 11.9 pEC50 (-log M) | – | – | – | – | –
8 | B2 | < 9 pEC50 (-log M) | 11.4 pEC50 (-log M) | – | – | – | – | –
9 | YSHGTFTSDYSKYLDK([γGlu-γGlu-dpeg″-C20 diacid])KYAEKFVKWLEDE-NH2 (lactam 20-24) [Compound A35] | < 9 pEC50 (-log M) | 11.9 pEC50 (-log M) | – | – | – | – | –
10 | B3 | < 9 pEC50 (-log M) | 11.7 pEC50 (-log M) | – | – | – | – | –

Reference: patent publication US20240228572A1 (I2O THERAPEUTICS, published 2024)
